{"source": "patent US20230053129A1", "molecular_target": "Shiga toxin 2 (UniProt P09385)", "sequence (P09385 23-319, chain 1 of 2)": "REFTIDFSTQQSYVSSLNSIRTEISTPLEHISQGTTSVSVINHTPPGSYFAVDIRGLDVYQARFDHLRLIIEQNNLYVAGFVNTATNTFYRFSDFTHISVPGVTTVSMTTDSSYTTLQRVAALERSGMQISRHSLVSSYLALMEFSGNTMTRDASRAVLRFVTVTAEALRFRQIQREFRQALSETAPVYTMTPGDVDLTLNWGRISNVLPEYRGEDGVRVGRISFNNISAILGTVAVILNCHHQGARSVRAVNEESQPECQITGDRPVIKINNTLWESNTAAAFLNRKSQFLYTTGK", "sequence (P09386 20-89, chain 2 of 2, further chain)": "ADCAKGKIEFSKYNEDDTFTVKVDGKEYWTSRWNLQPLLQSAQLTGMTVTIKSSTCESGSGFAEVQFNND"}
{"substance": "NAB815 (OA-Dab-Thr-DThr-cy[Dab-Dab-DPhe-Leu-Abu-Dab-Thr-]) (peptide)", "values": [{"measurement": "Kd", "result": 5, "unit": "nM"}, {"measurement": "maximum reduction of fluorescence emission", "result": 10, "unit": "%"}]}
